According to the domain aggregation screens of Martell et al. (2025):

experiment: soluble fraction after stress (log2 fold change); higher = more stays soluble; pooled small domains, quantitative proteomics; settings: stress: pH 4
Summary of the method: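 Aggregation propensity here comes from the fold change in the soluble amount of each small protein domain after acid stress, measured in pooled custom libraries by high-throughput quantitative proteomics. The acid stress was pH 4. On the log2 scale, higher values mean more of the domain stayed soluble.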

Going from “HMSDLGEIEKIVDEVLAENITKVQEYKDGKKGLMGMFMGQIMKKSGGKADPKIANQLLTEKL” to “HMGDKVTIPNLIDMKLTDAQNQYKPQGFSIVKNGERESDKEAGTILEQDKAAGTEISGKDIRIFVVVSSGS”, the “soluble fraction (log2)” value falls from 0.138 to -0.302.

“HMFKINQKVKLIAPLPYLKTSENMPMLRPPDLVAIDEIGEVLSLKSPETVEVRFRRGSFLIDIDKLEKVD” and “HMIGMDMQELIGRYKGDPDEMGKIELAAMSMLKLSEDMSSDHVLQKSKLRQDGLWLLKYVQE” are within 0.2 log units of each other in “soluble fraction (log2)” value: -0.996 for the first, -1.03 for the second.

First: HMKDLQAISERMEEIISFAKANDNEISLFIVQDIIKNKKTGIDEDLLNMALYQIKEQGIKVLPA
Second: HMEPSAQEIANKLLGHVKSLGLPITGLSISYNSTSDLATVRGQVQSQADREKIILAVGNVDHVAKVDDQLT
The “soluble fraction (log2)” value of the first is lower: -1.05 for the first, -0.0387 for the second.

Going from “HMYRYTTFKVKEADTLLPFIQKSLNGISHNRAKAILTGGGVLVDKKITRAYDFALRPGMTVEISKSKP” to “HMLFSDSDLKSLLDKDISYVIEMYKAASKEQKRIISDMVAQKVMEKKYIDANILIQLGELTGINYMDL”, the “soluble fraction (log2)” value falls from at least 0.43 to -1.32.

First: HMQRYVVDENLKLDKKDINHIINVMRLNVNDQIKLINNGTIYDAIITKIEKNNVLYEIIKKEESK
Second: HMLDKRSHAKKVLDAIEAVILGRATNDQLAYTINGRSLQKTPLPDLLRLRSQYQAEYQRELRAERIRKG
The “soluble fraction (log2)” value of the first is lower: -0.809 for the first, at least 0.43 for the second.

Going from “HMHMSKKLADSIISLRRKHGFSQEQLAEKIGVTRQAISNWERGTATPDVETLNLIAKLFDMDLLAIINGE” to “HMQMSDTGAIEAMVKEALDENPQAIEDFKNGKGKALGFLMGQVMKKSKGQANGGIVNKLIKEELQKRIG”, the “soluble fraction (log2)” value rises from -0.514 to 0.315.

Compared with “HMQNPDHLLALAAAAQAAIELGRPDEAEAYYRHLVEVYGVEMASQKPEYLDHSGITNDLRNVAEGFLVG”, “HMGKRRGLKVAEEVFADRGYNPDGTLVNRSLPGAFVKDPDEAIARVIKMVKTKKVTAVNGEEIDIAADSI” is higher in “soluble fraction (log2)” value: -1.32 for the first, -0.462 for the second.

Going from “HMTMMTFGEKLQNARKGAGLSQEQLAEKLSVSRSAVAKWENDNGMPDIDNLKAIAQLLDVSIDYLLEN” to “HMATEVEVPDVVGRQMALATQLLEARKLRVNVAEIYDEKTPPGQVVSQSPEAGSSVKEERVVTIYVSR”, the “soluble fraction (log2)” value rises from -0.71 to 0.158.

“HMDEWDDGDKPKLKITLYADDDYYFASGFSKSSVSLSGSDGTVTSVSRSSSDTLIVYVTLDALD” and “HMSTDIPFNIFSQKWNADEIDSIVVENNKIEGKTKDNKKFSTYAPDELLTSLMENHKNPNVIVEFRAP” are within 0.2 log units of each other in “soluble fraction (log2)” value: -0.845 for the first, -0.646 for the second.

First: HMSTPAKVTPTNPIVKQLFNAAETQIKNKDIQNAIASYEKADTLTTDEKVKQYIHYQLSTLKDDN
Second: HMPPLKYLKVKSYLEAVAVKAESAMRMPTVRELMNQFNVSLATVNRALSELENDGVIVRRQGSGIVAAG
The “soluble fraction (log2)” value of the first is lower: 0.0384 for the first, at least 0.43 for the second.

Compared with “HMNPNFIEVSHGRLRVNVPLSAYEGTTYHIKPEEAEKLKRTLASRYPWLTPNALKVFIEEAEQAMRERIQ”, “HMAQILEPSVALKKLLELKQAGFEDETLVGWIRKVEFTRPLTPDDLLEWKGAGISQAVIRAAM” is lower in “soluble fraction (log2)” value: 0.217 for the first, 0.00449 for the second.

First: HMKVSAEEQNILDALQAAGGYLPFHDKSNPEEIYEAFGISKKTFKMIIGSLYKQQKINLTQTGIQLII
Second: HMEEFAGYINGQPYYGPTHQHRGVKMVGAEHTQRPHPLVWDSVAKSLDNYDNRFQWVNGNLLQVV
The “soluble fraction (log2)” value of the first is lower: -0.637 for the first, 0.3 for the second.

Going from “HMGRKRLADYGLNDTEQKIVRKIADGLSNREIAQALYLSEGTVKNYITDILGKLELRDRTQIAIFYLREIG” to “HMTTLLNHLKGTRLEAGLSQQALARLAGISRQAYSALESGSSNPSTEVALRLARALKTSVDHLFSLPE”, the “soluble fraction (log2)” value rises from -0.244 to 0.0864.

“HMSVDIIPGKADQKVRLIHDPAIVGVTTGGVKTAGPHTLIQIELGPNERPYKRLSLLELIPEG” and “HMRQQLAEILQKAVDNLPEAQRLVWLLRDKSDMTFKEIAEDLQLTEANVRVLLHRARLKLLAVINQYEE” are within 0.2 log units of each other in “soluble fraction (log2)” value: 0.00535 for the first, -0.115 for the second.

Compared with “HMKKSTLLLFFLKELLEGKKISLKSFALENDINIRTAQRYIEDIEEAFPDNLLKENDFYSFV”, “HMAMSAGEVVERIREHVGHPATIKELMRVLAIPNEERYRFRRRIKQLVEAGELIRIRGNRYGLADR” is higher in “soluble fraction (log2)” value: -1.05 for the first, at least 0.43 for the second.

Compared with “HMKMSVKNEIISLLEKNRDTSISGQVIADSLNVTRAAVWKAIKVLKEEGYNIDGTPNKGYILLGNN”, “HMGHTKLVVDIVEELKLEQGALLPILHAIQDELGYVPTKSVPFIADSLNLSRAEVHGVISFYHYFR” is lower in “soluble fraction (log2)” value: 0.0991 for the first, -0.741 for the second.

“HMGGTAGKINAIGVNFRTGPSTSYTSLGLLGKDTAVTVIGTSGKWYKVTIVSTGKTGYVYATYVNLTP” and “HMGTSMDPPVIIVSDGKLIQKGLEVSGLKKQWLYDLIDRKHMKISDIFLLTADKTGKYNLIKRS” are within 0.2 log units of each other in “soluble fraction (log2)” value: -0.102 for the first, -0.134 for the second.

“HMDDAVSHPDAGHIVTVTKVSADGTAEVMYRGASWRAKTADGSPLTAGSARIVRVDGAALVVEP” and “HMHAPLEVGSVVRIEGQKALGTILSISDREAIVALGALKTTIPLKRLHGVSPAEAQRHLRKTTPAQAVR” are within 0.2 log units of each other in “soluble fraction (log2)” value: 0.116 for the first, 0.0546 for the second.

“HMSSVTGMERFLSSGAVKGIGKTMAARIVEHFGTETMTVLESFPERLAEVPGIGAKKAEAIGQSYSEISD” and “HMVKLSATVKELLDFVIAKKTVTSSNVSKHFDISAQNASGRLKKLHATGLVLGQKEVAESGGLEFVYRS” are within 0.2 log units of each other in “soluble fraction (log2)” value: -0.259 for the first, -0.208 for the second.

First: HMEGRHFRILYILLNNERVTAPELAEEFGVSVRTIYRDIDTMSAAGIPIYMQGGRKGGIYLLEGY
Second: HMSLEDNEVIQRMKVILDRFDEETAVDRTTAFKAVLDHIGKMDAESKTLEHMAEMLEALLDKVLEE
The “soluble fraction (log2)” value of the first is lower: -1.61 for the first, -0.371 for the second.

Going from “HMLQLSDAISRVESFLQGQNRNLAFSIDENTERSVVTVLDSDTGDVIRQIPSEELLVLAKRIQELQQD” to “HMVSLNKTEFIAVKKASASELRDKINSLGLDVLKDATISADARTNQIIATGPKYALEQIKMLVVGLDVSS”, the “soluble fraction (log2)” value rises from -1.19 to 0.313.

“HMDTVSYMSDAVKAGAVTPSHDEEARARYLLYAGFGAILLFLRYEASEPGDIESAIREFMERYGPVTAELY” and “HMDAPHPSVVQVYFESRDRSWTYYNDRFDLHEGDLVYVEGKLEGVRGRVVEVSYNFRIKLADYKRVIAVA” are within 0.2 log units of each other in “soluble fraction (log2)” value: 0.00707 for the first, -0.122 for the second.

First: HMRTIVSELNDIKGISDASAKKLLIRYGSFEAVREAVMKHEEEFELDMGKRITGALTRYFYEE
Second: HMENTVVMPNLLGKTMTEAKIELKDLSISITLKGSENSSQYAAGQIISQSVDSGTRVAVGSSVEVTIAGS
The “soluble fraction (log2)” value of the first is higher: 0.223 for the first, -0.0377 for the second.

Going from “HMDSMATVPDLVGKTEDEAKALANDAHLGVQMAGEEASDQEKGKISRQETAAGTQVAEYTTVKYWVSTGTQ” to “HMVEDPADNQKAADAVIKKISEIGEVTESSENLIKEARASYDALTDNQKELVTNYDVLVQAEAQLENIKD”, the “soluble fraction (log2)” value falls from 0.154 to -0.703.

First: HMKVSDPEAIKLIEQAQVKVIPFLDISEAADIQIALEELKNSEGTGQTDSAKVRLRNLLSPFSYL
Second: HMNAVITTQKAKQIALAHAGLSEADVNYVKAELENDDGVQVYDIEFYSKNIEYDYDINAVTGEIMSFDHDI
The “soluble fraction (log2)” value of the first is lower: -1.12 for the first, -0.623 for the second.

First: HMDGEITLYKVVGYIKASDFDDKKNGFVIADDYITKRQAEDTMYEWKRKKTYPYLEIKEYKGKDPYK
Second: HMYMFSGQRLKSLRKEKKMSQEKLGSLLNISKVAVSNWENAKSFPTMDNLNELAKVLEVEPHYF
The “soluble fraction (log2)” value of the first is higher: -0.0464 for the first, -0.41 for the second.

“HMQISDESQLREVVSKILEENEQSVIDYKNGKTRAMGFIIGQVMKATRGKANPQLVNEIVKEMLDE” and “HMDDAFLNKEMLKQALENLNEREKKLIYLRFYEGLTQKEIADRLSLSQMHVSRLLNESLNKLRRKI” are within 0.2 log units of each other in “soluble fraction (log2)” value: -0.137 for the first, -0.0579 for the second.

Compared with “HMHRNLSFEEEKEFLSAYTKQAEAGQIVDLNEMKAAYIEKVGHSIGGSQIYRMLERHGWRKVM”, “HMGRSYTIKSGDTLWAIATRYYGNGAQYSKIYNANKGTIESVAKSRGFRSSQNGHWIFPGTSITI” is higher in “soluble fraction (log2)” value: -0.468 for the first, 0.056 for the second.

“HMDRYVDEEKRFYWRSGEAYLNFSKYKDRSLAEVATVDPGFLRWMMEADFSPETKQIVERALEGEFPQKK” and “HMPAFWILAVLAGGRRHGYQIMREAALSSEGLVTLKPTTLYAALERLERDGAIQQDGEEIVDGRVRRYYRI” are within 0.2 log units of each other in “soluble fraction (log2)” value: -0.244 for the first, -0.305 for the second.

Compared with “HMHTTIIVASRDIAAGSVLTSHDLSSVAWVGGAVPKGSYTAADLAVGKTAFTAFQQGEPILESRLAS”, “HMDRDPAEAGYDDGYLSGNTDGMNNDERATYDESSQYPTPDERQSYAAAYRRGYAAGFADGRKQAV” is lower in “soluble fraction (log2)” value: 0.317 for the first, -0.138 for the second.

First: HMLQYSQEIEEAQKILQNLGLYKGEIDGINGVNTKSAIKEFQRKSGLIIDGILGPNTTSALSKGAESYITV
Second: HMKLELSNDFYNKIRLARKENGLTQEDLAEKLNMKVGVIQKIENGVRQTDSNLMKISKFLGVEIYVE
The “soluble fraction (log2)” value of the first is higher: 0.0398 for the first, -0.303 for the second.

“HMRDLLPHFQRELQFLQTHRNEFAAAYPELGGRLATASDLLDDPHVERMVQSFALLAARVHKRLDDDF” and “HMPEPPRVGETLAALRQDRALSLDELSRQAGVSKSMLSQIERNQANPTVAVVWRLANALGVPMAELLGA” are within 0.2 log units of each other in “soluble fraction (log2)” value: -0.143 for the first, -0.192 for the second.

Going from “HMRFMRVSQSKSKNSTSLYIIESVYTKDNKHTTRIVKKLGTVEELSKEHEDPLAWAKEVAKQMTEEAEQN” to “HMAKSMRHLIVPSRETSLWRDKLSTNGWLSKGYGIHNLDDYRGIPLNETAPKIIEGLEITELEPIS”, the “soluble fraction (log2)” value falls from -0.508 to -0.755.

“HMSDRQLKRQANILYTTRKLASKVGYDGLTMRGLAEASEVSPKTLYNLFSSKDELLAAALEDLVGIV” and “HMATIGVGSKVTLTTYVDWVGNGLLKTRDFYFVSELNGKRAVLRADSMNGAIYAAVNIDNLRI” are within 0.2 log units of each other in “soluble fraction (log2)” value: 0.0711 for the first, -0.103 for the second.

“HMNSSHRLIGLDPGLRVTGWGIVDAIGTKLVHVANGSVKSQQNAPLATRLLELENGLEEVFDNWQPDFA” and “HMGEIILVPDVKAQGVSDARYTLNQAGLDAVIADSSYNRNSPPGAVLEQMPAPGSKVKSGHAIYLIINTT” are within 0.2 log units of each other in “soluble fraction (log2)” value: -0.0459 for the first, 0.0604 for the second.

First: HMDLIISDIRMPEMRGDDFLEWIKANELFKHIPVIMLSSEDSTTERIRLLEIGAEDYIVKPFNPMELKIR
Second: HMKEKIIKEPYDLFTTDKIGQALEVQALLARQGIKVQRRVDGTKSTLFLENYTQSEKDQALLAVVRSGIV
The “soluble fraction (log2)” value of the first is lower: -1.01 for the first, 0.167 for the second.

“HMDISRMNLSQTERAVLSVLDSQPLHTEEIIASADLRAGAIHSALISLQLKGLIKQLPGNLYVK” and “HMIQYRKILELHFKDISQRTISTSVGSSRNTVSDVIKRSEQLGLERLTDNMNNRWLEEFLFPEKQ” are within 0.2 log units of each other in “soluble fraction (log2)” value: -0.035 for the first, -0.177 for the second.

With “HMELSPVDLGERLKIARETANFTQDAAAKAVGIARTTLVSIEKGQRTARLDEIQALSRFYGVSANALLR” the “soluble fraction (log2)” value was 0.0374.
